In article PMC4234509:

Columns and labels:
[1] = target: EvpP (E. tarda virulent protein P), wild type, 6x His-tagged (Edwardsiella tarda PPD130/91); assay: dynamic light scattering; 50 µM protein, 20°C, DynaPro; 11 readings
[2] = target: EvpP (E. tarda virulent protein P), wild type, 6x His-tagged (Edwardsiella tarda PPD130/91); assay: cross-linking; glutaraldehyde, room temperature, different time periods, SDS-PAGE
[3] = target: EvpP (E. tarda virulent protein P), wild type, 6x His-tagged (Edwardsiella tarda PPD130/91); assay: SEC; Superdex 75 HiLoad 16/60; EvpP eluted at ~72 ml, standards ovalbumin (44 kDa) at 63 ml and myoglobulin (17 kDa) at 83 ml
[4] = target: trypsin-digested EvpP (associated 10-kDa and 4-kDa fragments) (Edwardsiella tarda PPD130/91); assay: SEC; EvpP after limited trypsin digestion (protein:trypsin 100:1), HiLoad 16/60 Superdex 75

Row | Substance | stoichiometry N [1] | stoichiometry N [2] | stoichiometry N [3] | stoichiometry N [4]
1 | EvpP (E. tarda virulent protein P), wild type, 6x His-tagged (natural protein) | 2 | 2 | 2 | –
2 | trypsin-digested EvpP (associated 10-kDa and 4-kDa fragments) (complex) | – | – | – | 2
